The target in the assay is Histidine-tagged human TEAD4 (amino acids 217–434) (human, UniProt Q15561 217-434). Description: native gel or EMSA; TEAD4 incubated with increasing concentrations of VGLL3 peptide before labelled YAP was added; 10 min at room temperature; 10% native gel at 100 V; only labelled YAP is seen. The following applies: both partners purified.
Sequence of Histidine-tagged human TEAD4 (amino acids 217–434) (Q15561 217-434): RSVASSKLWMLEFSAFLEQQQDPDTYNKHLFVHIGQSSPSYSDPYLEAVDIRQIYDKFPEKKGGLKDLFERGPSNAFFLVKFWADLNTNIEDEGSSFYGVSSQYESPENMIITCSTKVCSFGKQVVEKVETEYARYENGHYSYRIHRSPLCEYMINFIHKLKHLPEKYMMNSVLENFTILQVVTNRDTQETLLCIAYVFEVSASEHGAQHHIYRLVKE

Consider SRCVLFTYFQGDIGSVVDEHFSRALGQ (peptide, UniProt A8MV65 86-112, looked up) [Unlabelled human VGLL3 (amino acids 86–112) peptide], for which the binding result is given as “binds”.

The values above are taken from PMC6633393 (Journal of cell science, 2019).
